Earlier results as cited in publication PMC5973875.
Read-outs that look alike come from different tables or passages of the source.

Assays:
Protein S (Homo sapiens) [1] = target: Protein S (Homo sapiens) (UniProt P07225)
Protein S (Homo sapiens) [2] = target: Protein S (Homo sapiens) (UniProt P07225); remark: listed apart in the source

Chain of UniProt P07225 (P07225 42-676): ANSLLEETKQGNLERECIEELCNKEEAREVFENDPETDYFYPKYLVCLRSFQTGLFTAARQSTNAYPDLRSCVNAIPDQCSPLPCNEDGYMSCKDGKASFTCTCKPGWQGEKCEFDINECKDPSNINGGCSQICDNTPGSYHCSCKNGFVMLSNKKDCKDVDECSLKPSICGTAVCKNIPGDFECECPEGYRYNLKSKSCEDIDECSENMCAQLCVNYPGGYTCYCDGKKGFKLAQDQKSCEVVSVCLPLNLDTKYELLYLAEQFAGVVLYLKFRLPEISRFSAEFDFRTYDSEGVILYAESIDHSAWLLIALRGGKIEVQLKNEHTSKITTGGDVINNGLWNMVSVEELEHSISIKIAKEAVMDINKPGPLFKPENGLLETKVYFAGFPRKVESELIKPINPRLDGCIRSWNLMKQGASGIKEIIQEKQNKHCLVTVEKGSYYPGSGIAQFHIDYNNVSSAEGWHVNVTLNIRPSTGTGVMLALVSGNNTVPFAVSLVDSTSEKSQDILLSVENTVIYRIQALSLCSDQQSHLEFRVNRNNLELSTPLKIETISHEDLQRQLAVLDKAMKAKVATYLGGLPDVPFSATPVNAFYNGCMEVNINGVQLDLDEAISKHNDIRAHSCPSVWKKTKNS

Kd (Protein S (Homo sapiens) [1])	Kd (Protein S (Homo sapiens) [2])	Substance
0.0001 µM	–	C4BP (from UniProt P04003)
–	0.033 µM	Factor Va heavy chain (from UniProt P12259)
